In patent publication US5770410A, “Chiral synthesis with modified enzymes” (Genzyme Corporation, priority 1992, dated 1998) one finds Km, kcat and kcat/Km data, which are given here for three proteins.

Usually Km stands for the concentration of substrate that gives half-maximal velocity. Usually kcat stands for the number of substrate molecules converted per active site and unit of time at saturation. One may read the kcat/Km as the second-order rate constant that governs catalysis at low substrate concentration.

Holding throughout (test): Steady-state kinetics, NADH-dependent reduction of 2-oxo acids (A340)
Substrate in data set [1]: CC(=O)C(=O)O
The class given is biochemical, Bacillus stearothermophilus. Conditions: other: -FBP, 25° C., pH 6. How it is done:
(§1) Overnight cultures (11) were centrifuged and the packed cells were resuspended in 50 mM triethanolamine, pH 6.0. The cells were sonicated and the debris was removed by centrifugation. The protein in the supernatant was precipitated by the addition of 65% ammonium sulphate. The precipitate was spun down and resuspended in 50 mM triethanolamine, pH 6.0 and dialysed against the same buffer. After dialysis, NADH and FBP were added to the protein to final concentrations of 5 mM and 10 mM before loading onto an oxamate Sepharose column which had been pre-equilibrated with 50 mM triethanoloamine, pH 6.0, 3 mM NADH and 5 mM FBP. After washing off unbound protein with column buffer mutant LDH was eluted with 50 mM triethanolamine, pH 9.0, 0.3 M NaCl. The elutant was precipitated with 65% ammonium sulphate and then resuspended in and dialysed against 50 mM triethanolamine, pH 7.5. The protein was then loaded onto a Q-Sepharose Fast Flow column and eluted with a salt gradient. LDH eluted at a concentration of 0.25M NaCl. For the double glycine mutant enzyme, the first chromatography procedure with oxamate Sepharose was replaced by chromatography on Blue Sepharose -F3GA, otherwise the procedure was essentially the same. All proteins were judged to be greater than 98% pure from the intensity of Coomassie blue staining on an SDS Phast gel (Pharmacia). The yield of protein was usually 0.2 g/l of original broth.
(§2) Steady-state measurements were made by following the reduction in absorbance at 340 nm in the NADH/NAD^+ conversion. All assays were at 25° C. in the buffer Bis-Tris, pH 6, (20 mM), containing KC1 (50 mM) and when used fructose-1,6-bisphosphate at 5 mM. Protein concentration was determined from the absorbance at 280 nm using the value of 0.91 for 1 mg/ml protein in 1 cm path and an Mr of 33,000.
(§3) The specific substrates used in the evaluations are shown in the left column of Table 4. In Table 4, "235/6GG" denotes the mutant enzyme formed by substituting GlyGly for AlaAla at the 235-236 positions of the enzyme (Wilks et al., Biochemistry 1990, 29, 8587-8591), and "WTrs" denotes a mutant derived from the wild-type strain as shown in FIG. 1 of Wilks et al., Biochemistry 1992, 31, 7802-7806.

Substrate in data set [2]: O=C(O)C(=O)CCc1ccccc1
The class given is biochemical, Bacillus stearothermophilus. Conditions: other: +FBP (5 mM), 25° C., pH 6. On the procedure:
as §1, §2, §3

Substrate in data set [3]: O=C(O)C(=O)Cc1ccccc1
Format: biochemical, Bacillus stearothermophilus. Conditions: other: +FBP (5 mM), 25° C., pH 6. On the procedure: as §1, §2, §3

Substrate in data set [4]: CC(=O)C(=O)O
The class given is biochemical. Conditions: other: -FBP, 25° C., pH 6.
Excerpt: (§4) Mutants were identified by making mini-preps and restricting with SacII and XbaI. Mutant mini-preps were restricted with EcoRI and XhoI and the small fragment was subcloned into PKK223-3 containing Ala235Gly, Ala236Gly mutant LDH from which the small EcoRI/XhoI fragment had been removed (Wilks et al. Biochemistry, 1990, 29, 8587). The resulting plasmid (pLDHrs) was transformed into competent E. coli TG2 cells.
as §1, §2, §3

Substrate in data set [5]: CCCCC(=O)C(=O)O
Format: biochemical. Conditions: other: -FBP, 25° C., pH 6.
Excerpt: as §4, §1, §2, §3

Substrate in data set [6]: O=C(O)C(=O)CCc1ccccc1
Format: biochemical. Conditions: 25° C., pH 6.
Excerpt: as §4, §1, §2, §3

Substrate in data set [7]: CC(C)CC(=O)C(=O)O
The class given is biochemical. Conditions: other: -FBP, 25° C., pH 6.
Excerpt: as §4, §1, §2, §3

Substrate in data set [8]: O=C(O)C(=O)Cc1ccccc1
The class given is biochemical. Conditions: 25° C., pH 6.
Excerpt: as §4, §1, §2, §3

B1: Bacillus stearothermophilus lactate dehydrogenase, wild type, SEQ ID NO: 3 (Geobacillus stearothermophilus) (protein)
chain: MKNNGGARVVVIGAGFVGASYVFALMNQGIADEIVLIDANESKAIGDAMDFNHGKVFAPKPVDIWHGDYDDCRDADLVVICAGANQKPGETRLDLVDKNIAIFRSIVESVMASGFQGLFLVATNPVDILTYATWKFSGLPHERVIGSGTILDTARFRFLLGEYFSVAPQNVHAYIIGEHGDTELPVWSQAYIGVMPIRKLVESKGEEAQKDLERIFVNVRDAAYQIIEKKGATYYGIAMGLARVTRAILHNENAILTVSAYLDGLYGERDVYIGVPAVINRNGIREVIEIELNDDEKNRFHHSAATLKSVLARAFTR
notes: made in house; host or cells: E. coli
On to B1, for which the Km in data set [1] was determined as 2 mM; in data set [2] it was 0.6 mM; in data set [3] it was 1.8 mM. The kcat came out at 250 s⁻¹ in data set [1], 6 s⁻¹ in data set [2] and 32.7 s⁻¹ in data set [3]. The kcat/Km was found to be 50000 M⁻¹ s⁻¹ in data set [1], 10000 M⁻¹ s⁻¹ in data set [2] and 18000 M⁻¹ s⁻¹ in data set [3].

B2: Bacillus stearothermophilus lactate dehydrogenase mutant 235/6GG (Ala235Gly, Ala236Gly) (Geobacillus stearothermophilus; A222G/A223G) (protein)
chain: MKNNGGARVVVIGAGFVGASYVFALMNQGIADEIVLIDANESKAIGDAMDFNHGKVFAPKPVDIWHGDYDDCRDADLVVICAGANQKPGETRLDLVDKNIAIFRSIVESVMASGFQGLFLVATNPVDILTYATWKFSGLPHERVIGSGTILDTARFRFLLGEYFSVAPQNVHAYIIGEHGDTELPVWSQAYIGVMPIRKLVESKGEEAQKDLERIFVNVRDGGYQIIEKKGATYYGIAMGLARVTRAILHNENAILTVSAYLDGLYGERDVYIGVPAVINRNGIREVIEIELNDDEKNRFHHSAATLKSVLARAFTR
notes: as for B1
For B2, in data set [2], the Km stood at 13 mM, the kcat stood at 7 s⁻¹ and the kcat/Km was found to be 538 M⁻¹ s⁻¹. In data set [3], the Km worked out at 4.5 mM, the kcat was 53.4 s⁻¹ and the kcat/Km was determined as 12000 M⁻¹ s⁻¹.

B3: Bacillus stearothermophilus lactate dehydrogenase mutant WTrs (restriction-site construct pLDHrs, Cys97Thr, Ala235Gly, Ala236Gly; loop SEQ ID No 7) … (protein)
chain: MKNNGGARVVVIGAGFVGASYVFALMNQGIADEIVLIDANESKAIGDAMDFNHGKVFAPKPVDIWHGDYDDCRDADLVVITAGANQKPGETRLDLVDKNIAIFRSIVESVMASGFQGLFLVATNPVDILTYATWKFSGLPHERVIGSGTILDTARFRFLLGEYFSVAPQNVHAYIIGEHGDTELPVWSQAYIGVMPIRKLVESKGEEAQKDLERIFVNVRDGGYQIIEKKGATYYGIAMGLARVTRAILHNENAILTVSAYLDGLYGERDVYIGVPAVINRNGIREVIEIELNDDEKNRFHHSAATLKSVLARAFTR
notes: made in house; host or cells: E. coli TG2
Turning to B3, the Km in data set [4] came out at 100 mM; in data set [5], 30 mM; in data set [6] (other: +FBP (5 mM)), 4 mM; in data set [6] (other: -FBP), 12 mM; in data set [7], 28 mM; in data set [8] (other: +FBP (5 mM)), 6 mM. In addition, in data set [8] (other: -FBP), the Km was 21 mM. Besides, the catalytic constant (kcat) in data set [6] (other: +FBP (5 mM)) is 6 s⁻¹; in data set [8] (other: +FBP (5 mM)) it was 58 s⁻¹. For the same protein, the results for the kcat/Km in data set [6] (other: +FBP (5 mM)) and in data set [8] (other: +FBP (5 mM)) were 1500 M⁻¹ s⁻¹ and 9600 M⁻¹ s⁻¹, respectively.
